Experiment: soluble on expression in E. coli; label from the status in PepcDB or PDB records

Which “soluble on expression in E. coli” value does the source give for “MAYTIGVDFGTLSGRAVLVHVQTGEELAAAVKEYRHAVIDTVLPKTGQKLPRDWALQHPADYLEVLETTIPSLLEQTGVDPKDIIGIGIDFTACTILPIDSSGQPLCMLPEYEEEPHSYVKLWKHHAAQKHADRLNQIAEEEGEAFLQRYGGKISSEWMIPKVMQIAEEAPHIYEAADRIIEAADWIVYQLCGSLKRSNCTAGYKAMWSEKAGYPSDDFFEKLNPSMKTITKDKLSGSIHSVGEKAGSLTEKMAKLTGLLPGTAVAVANVDAHVSVPAVGITEPGKMLMIMGTSTCHVLLGEEVHIVPGMCGVVDNGILPGYAGYEAGQSCVGDHFDWFVKTCVPPAYQEEAKEKNIGVHELLSEKANHQAPGESGLLALDWWNGNRSTLVDADLTGMLLGMTLLTKPEEIYRALVEATAYGTRMIIETFKESGVPIEELFAAGGIAEKNPFVMQIYADVTNMDIKISGSPQAPALGSAIFGALAAGKEKGGYDDIKKAAANMGKLKDITYTPNAENAAVYEKLYAEYKELVHYFGKENHVMKRLKTIKNLQFSSAAKK” here?
The value was “soluble”.

For “LGTERQREHPFIVTEPGEVARGKKNGLDYLFHLYEQCREFLLQVQTIAKDRGEKCPTKVTNQVFRYAKKSGASYINKPKMRHYVHCYALHCLDEEASNALRRAFKERGENVGSWRQACYKPLVNIACRHGWDIDAVFNAHPRLSIWYVPTKLRQLCHLERNNAVAAAAALVGGISCTGSSTSGRGGCGGDDLRF”, which “soluble on expression in E. coli” value is on record?
Its value is “soluble”.

For “MANKNYQMSTGVTAVVQKVVEACQDESKRLDLIEIARSYPPNQLRNMQRTFQAITGTFLDAFLKKHLSKDFESLVLMLYKPRAQLLCELIRGATKGAGTDEKCLVDVLLTIETHEVREIRQLYYQLYNDSLGDVVRKDCGDKYMWAKLINAVATGDRIPRDTHELEEDLVLVRKAIETKGVKKDEVSTWIRIFATYTRADFRQLHKMYSAKYNGDSLRAGVEDEFQGLDEYAFKLAHDFLYDPCCAAAFSMNVAFAGSGSDSNRLNRITAMHFRECKGCKYYYKKVYGQAFDERCATELKGVYGDAIKLLWEPVTVPLLSMDDYQGSEQHRPMTLEL”, which “soluble on expression in E. coli” value is on record?
The value was “soluble”.

With “MVKLRDWQEKLKDKVIEGLRNNFLVALNAPTGSGKTLFSLLVSLEVKPKVLFVVRTHNEFYPIYRDLTKIREKRNITFSFLVGKPSSCLYAEKGAESEDIPCKYCELKGSIVEVKTDDSPLSLVKKLKKDGLQDKFCPYYSLLNSLYKADVIALTYPYFFIDRYREFIDIDLREYMIVIDEAHNLDKVNELEERSLSEITIQMAIKQSKSEESRRILSKLLNQLREVVLPDEKYIKVENVPKLSKEELEILADDYEDIRKDSLKQGKVNKIHIGSILRFFSLLSIGSFIPFSYSKRLVIKNPEISYYLNLLNDNELSIILMSGTLPPREYMEKVWGIKRNMLYLDVEREIQKRVSGSYECYIGVDVTSKYDMRSDNMWKRYADYLLKIYFQAKANVLVVFPSYEIMDRVMSRISLPKYVESEDSSVEDLYSAISANNKVLIGSVGKGKLAEGIELRNNDRSLISDVVIVGIPYPPPDDYLKILAQRVSLKMNRENEEFLFKIPALVTIKQAIGRAIRDVNDKCNVWLLDKRFESLYWKKNLKCLNANKMKL” as the sequence, how does the “soluble on expression in E. coli” value read?
The value was “soluble”.

Which “soluble on expression in E. coli” value does the source give for “GVLAPVVPGKALEFPQDFGAHNDFRIEWWYVTGWLETPTGKPLGFQITFFRTATEIDRDNPSHFAPDQLIIAHVALSDPAIGKLQHDQKIARAGFDLAYARTGNTDVKLDDWIFVRETDGRYRTRIEAEDFTLTFILTPSQPLMLQGENGFSRKGPGAPQASYYYSEPHLQVSGIINRQGEDIPVTGTAWLDREWSSEYLDPNAAGWDWISANLDDGSALMAFQIRGKDDSKIWAYAALRDASGHTRLFTPDQVSFHPIRTWRSARTQAVYPVATRVLTGETEWQITPLMDDQELDSRASAGAVYWEGAVTFTRDGQPAGRGYMELTGYVRPLSM” here?
The value was “soluble”.

With “MGSDKIHHHHHHMDFRQFEYVKTIAEEKSISRAAERLYISQPSLSQYIIRLENSLGVKLFDRTSATITLTFAGEKYIETARNIINLNNQLTKELNDIANLSKGRVIIGVPSQAGRYILPLVIPKFYKEYPNIEIIVEENIVSELEKMLLEGKIDIAILTLPVQHEKITYESIMNERIFLIAPKKHPICSVDGRISFNFIRNEKFILLKKGQRIRLIVDDIFSRIGAKPNIILEITNLDAAYRMASSGMGFTIVPENVLYLLNTNGKENDFIIDSLEHTLVVAYRKGEYLTRASREFIANLKGVMKMDYNNKNHNSVSYKKIYID” as the sequence, how does the “soluble on expression in E. coli” value read?
The value was “not soluble”.

With “MEQHVIEFLTTTLDDLKAQDILAIDVRGKSSITDTMIIATGTSVRHVASTAERLITEAKKAGVQVLGEEGRAVADWVVVDFGQAIVHLLQADARELYQLEKLWRLEHHHHHH” as the sequence, how does the “soluble on expression in E. coli” value read?
The value was “not soluble”.

For “MSLSAAEAGPLQGGLHVLIVDDNDINLKVLSTFMSKIGCSYDTASNGLVAVEKYRQTQQKFDYVLMDISMPIMDGITASRTIREYEDESLLERCTIMAVTGVASSDMQQQAFAAGMDDYLVKPLSLHDLKRILGVNEGHHHHHH”, which “soluble on expression in E. coli” value is on record?
The value was “not soluble”.

With “MGSDKIHHHHHHRVAQCCAIIDRSKIVIGFSDHGLYCIEISRQLLIPVGGEKENKQRCVETVEYDEAEQLLMMIVGPAKDRHVRIVPSAALDGRDLKWIKVNDTKGCHLLAVGTNNPGGRAGFFAVAFKKSVTIFQIDRSEKRHKKWKDLAMPGTPQSIAIFNGRLYVGFSHSFRSWSLVGVDSSPVGSGDASGAVLQHISLVNMEDTSLQFLNQQTSYEAKLIVNVPGSPDEYLLVFNMIGLYVNEMGRRSRLPEVMFPTQAKYFAYHEPYLCVFSENEVDIFNVTLAEWVQTINLRSAKPLSGDGILSTCLCNDSPIFVLLQN” as the sequence, how does the “soluble on expression in E. coli” value read?
The value was “not soluble”.

For “MSLINKHVISEKIKKAIVEANIKINPEVEEIIERYEGPFSDIIKENYRVSKEEKLPLCQDTGIVEFFVFIGHEVKLEEPIEETLNRAVGEVYSEYPFRYSVVSDPLFERINTGTNTPAIVHIFQVKGKSLEIRFLVRGGGSENLTVLRMMTPTSDVEKVKEFVIEHIKEHGAKACPPLHVGIGIGGTADKALLLSKLALTKSFKERNKDPKYAGLEKELEKELNFLGIGFQGLGKGITVYSVHIEHFPTHIATLPVAVSVDCYLCRRGKVTFEDEGGSHHHHHH”, which “soluble on expression in E. coli” value is on record?
The value was “soluble”.

Which “soluble on expression in E. coli” value does the source give for “FRFGLPIFHTIRWLVNLSKGKLEEPRNREGRPVSKNKKGKIKQPYRFFGEIFESMDQLTETLRRDKRNREKIQATREEWIAGLSHDLKTPLSSIYGYSMMLESKQYDWSPEEGEEMGQVVREKSEYMSKLIEDLNLTYRLKNDALPIERKLTSLIPFFKNVIEDFKKNPFSEGYDISFVSKEEHIEFALDEAWFRRILENLLGNAVKHNGKGTEIQVILEQTKNHISLKVKDNGKGMDEETITHLFNRYYRGTNTKDSTAGTGLGLAIAKELVHLHNGTIHVNSRTNIGTVITILFK” here?
The value was “not soluble”.

With “MPSGLEQCAPRCRALLQGESGVQIQGHYELKFEAVREAFAALFEDSQERGAALCIQVGGETVIDLWAGTADKDGAEAWHSDTIANLFSCTKTFTAVTALQLVAEGKLKLDAPVADYWPEFAAAGKAAITLRQLLCHQAGLPAVRELLPAQALYEWQTMVDALAAEQPWWTPGEGHGYAAITYGWLVGELIRRADGRGPGESIVARVARPLGLDFHVGLADEEFYRVAHIARGKGNMGDAAAQRLLQVTMREPDAMSTRAFTNPPSILTSTNKPEWRRMQQPAANGHGNARSLAGFYSGLLDGSLLEADMLEELTREHSLGMDKTLLTQTRFGLGCMLDQPQVANATFGLGARAFGHPGAGGSIGFADPEHDVAFGFVTNTLGPYVLMDPRAQKLVRVLSDCLLEHHHHHH” as the sequence, how does the “soluble on expression in E. coli” value read?
The value was “not soluble”.

For “MKSRIVYGPILSRRLGRSLGIDVIKNTGSKKNCNYDCIYCQLGHVELKLGSPEDVKEAVTPKEVSESFEKFYKDVEGLDYITFSGTCEPSLNLSLGEMIQSIREISGVPVCVITNSSLMGREDVRKNLSQADLVVATLVSGIEKTWRKIHRPAPCINFQEIIEGLRELAKAGDGKKLALEVMFLESETGEPLNSTDEEVDCLIKTIRYICPDEIEVLTISRPPAEKWVKPVSEERLREIADRFISEFGAEKVRLVLKGKKKKAKVLHRDLEEEVYALLLRRPCTFEQTWQGLSIDPESLRPVLEKLLAEGKIEEIGSKNSVYYRAK”, which “soluble on expression in E. coli” value is on record?
Its value is “not soluble”.

With “GPLGSEWYYGNVTRHQAECALNERGVEGDFLIRDSESSPSDFSVSLKASGKNKHFKVQLVDNVYCIGQRRFHTMDELVEHYKKAPIFTSEHGEKLYLVRALQ” as the sequence, how does the “soluble on expression in E. coli” value read?
The value was “soluble”.

For “MAKEFLIELGTEELPPTQLRTLAEAFAANFEAELKGAELAHEGVKWFAAPRRLALKVAALAESQSDKVVEKRGPAVSAAFDAEGNPTKAAQGWARGCGITVDQADRMVTDKGEWLLFKQEVKGQPTSEIVVELAAKALANLPIAKPMRWGNKTTQFIRPVKTLTMLMGSDLIEGEILGVASSRTIRGHRFMGEKEFTIDSAEQYPAILEERGKVMADYEARKAIILADAQKAAAAVGGIADLEDDLVEEVTSLVEWPVVLTAKFEEEFLKVPSEALVYTMKGDQKYFPVYDENKKLLPNFIFVSNIESKEPRYVIEGNEKVVRPRLADAEFFFNTDRKRPLIDRLPELEQAIFQQQLGTIKDKTDRITELAGYIAEQIGADVEKSKRAGLLAKCDLMTSMVFEFTDTQGVMGMHYARHDGEAEEVAVALNEQYMPRFAGDELPSNGVSTAVAMADKLDTIVGIFGIGQAPKGSDPFALRRASLGVLRIIVEYGYNLDLVDLVAKAKSLFGDRLTNDNVEQDVIEFMLGRFRAWYQDEGFSVDIIQAVLARRPTK”, which “soluble on expression in E. coli” value is on record?
The value was “not soluble”.

For “MCSAGGIRRPIQIEEFKTAISGMSDMELAQIKTEIENSINHLQRSNARLGKYIAKLEGADDRLEADDSDDLENIDSGDLALYKDSVRENEIVLNNYNERVDALEQETVYRKTGHGKSKHEVEAKDNTNKGPDVDMDNSNVDVVTPNSIFI”, which “soluble on expression in E. coli” value is on record?
Its value is “soluble”.

Which “soluble on expression in E. coli” value does the source give for “MGKYFGTDGVRGVANQELTPELAFKLGRYGGYVLAHNKGEKHPRVLVGRDTRVSGEMLESALIAGLISIGAEVMRLGIISTPGVAYLTRDMGAELGVMISASHNPVADNGIKFFGSDGFKLSDEQENEIEALLDQENPELPRPVGNDIVHYSDYFEGAQKYLSYLKSTVDVNFEGLKIALDGANGSTSSLAPFLFGDLEADTETIGCSPDGYNINEKCGSTHPEKLAEKVVETESDFGLAFDGDGDRIIAVDENGQIVDGDQIMFIIGQEMHKNQELNNDMIVSTVMSNLGFYKALEQEGIKSNKTKVGDRYVVEEMRRGNYNLGGEQSGHIVMMDYNTTGDGLLTGIQLASVIKMTGKSLSELAGQMKKYPQSLINVRVTDKYRVEENVDVKEVMTKVEVEMNGEGRILVRPSGTEPLVRVMVEAATDEDAERFAQQIADVVQDKMGLDK” here?
The value was “not soluble”.

For “MHHHHHHSSGVDLGTENLYFQSMQGTNPYLTFHCVNQGTILLDLAPEDKEYQSVEEEMQSTIREHRDGGNAGGIFNRYNVIRIQKVVNKKLRERFCHRQKEVSEENHNHHNERMLFHGSPFINAIIHKGFDERHAYIGGMFGAGIYFAENSSKSNQYVYGIGGGTGCPTHKDRSCYICHRQMLFCRVTLGKSFLQFSTIKMAHAPPGHHSVIGRPSVNGLAYAEYVIYRGEQAYPEYLITYQIMKPEAPSQTATAAEQ”, which “soluble on expression in E. coli” value is on record?
The value was “soluble”.

For “MGSDKIHHHHHHMKNNRINIHSQQYMETMARLMSEALESPEGMRALAAAIAAPIEQEIKRKEISSLLLTRHTLPKGERPIYQKKPTVKAHWISKDGEAQEQELGKDEVEFPTNRIHSNPMVDISVLKHGNIGTLMDIQTGAASSIRKEMDSRTITVISSAIPAANTVEVTGDKVTEEALNEAISIIEDLELSVKYIVLRGRRFNDMRSWNLDPQTKLELRQKGVIKNYGTGGILLTAAMPMDEIIIVPDEEVGKLPVRENLKTESIDQKTRFKTGWLVWSEIGQGITRPDILAKVKLVP”, which “soluble on expression in E. coli” value is on record?
Its value is “not soluble”.

For “MAVKGLGEVDQKYDGSKLRIGILHARWNRKIIDALVAGAVKRLQEFGVKEENIIIETVPGSFELPYGSKLFVEKQKRLGKPLDAIIPIGVLIKGSTMHFEYICDSTTHQLMKLNFELGIPVIFGVLTCLTDEQAEARAGLIEGKMHNHGEDWGAAAVEMATKFN”, which “soluble on expression in E. coli” value is on record?
The value was “soluble”.

Source: the DeepSol protein solubility set
